In patent publication US20220088145A1 one finds EC50 Ratio data, which are given here for two substances.

Experiment [1] concerns the target HLA-DR15 dimer (DR1501) (human). Description: peptide binding to HLA-DR dimer; EC50 ratio (<20 = high affinity, 20-100 = moderate affinity); method not described.
In experiment [2] the target is HLA-DR7 dimer (DR0701) (human). The description is as above.

Take E. rectale Fla1 p445-464 (peptide): in experiment [1], the EC50 Ratio is 4.5.

With R. Intest. Fla1 p408-427 (peptide), the EC50 Ratio in experiment [2] came out at 5; in experiment [1] it was 4.1.
